This passage reports koff results from patent publication US20210188989A1 (SYSTIMMUNE, published 2021).

Numbering of substitutions follows the chain as printed.

T1: recombinant cynomolgus 4-1BB extracellular domain protein (cynomolgus, UniProt A9YYE7 24-186)
T1 construct: Analyte in the Octet assay
T1 sequence: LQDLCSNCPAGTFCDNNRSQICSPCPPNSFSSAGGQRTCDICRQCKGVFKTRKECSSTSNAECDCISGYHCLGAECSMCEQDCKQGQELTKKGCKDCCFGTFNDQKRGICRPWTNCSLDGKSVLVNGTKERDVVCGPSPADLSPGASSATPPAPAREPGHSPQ

B1: 413F3 (antibody, human IgG1, kappa, V domains shown)
VH: QSLEESGGDLVKPEGSLTLTCTGSGIDFSSNYMCWVRQAPGKGLEWIACIYGDSSDNSYSASWAKGRFTISKTSSTTVTLQMTSLTAADTATYFCARSGYSYLGYFNLWGPGTLVTVSS
VL: DVVMTQTPASVEAAVGGTVTIKCQASQSIYSNLAWYQQKPGQPPKLLIYSTSTLASGVPSRFSGSGSGTEFTLTISDLECADAATYYCQNYYGSSTDSYGNPFGGGTEVVFKR
notes: one of the 34 chimeric antibodies; rabbit variable regions on human IgG1 and human kappa; also called 413F3 chimeric rabbit/human IgG
B2: 411H11 (antibody, human IgG1, kappa, V domains shown)
VH: QSVEESGGRLVTPGTPLTLTCTVSGFTISSHHMIWVRQAPGEGLQYIGFINDGDYTYYTNWAKGRFTISRTSTTVDLKMTSLTAADTATYFCARGVDGTSYPGLWGPGTLVTVSS
VL: DVVMTQTPASVSEPVRATVTIKCQASQSIGADLAWYQQKPGQPPKLLIYRASTLASGVPSRFSGSGSGTEFTLTISDLECADAATYYCQCIYYGTDDVIYHTFGGGTEVVFKR
notes: one of the 34 chimeric antibodies; rabbit variable regions on human IgG1 and human kappa; also called 411H11 chimeric rabbit/human IgG
B3: 418H5 (antibody, human IgG1, kappa, V domains shown)
VH: QSLEESGGRLVTPGTPLTLTCTVSGIDLSAYHMSWVRQAPGKGLEYIGMIGSSGTIHYANWAKGRFTISKTSTTVDLKITSPTTEDTATYFCARDSYNSDYAFNLWGPGTLVTVSS
VL: AQVLTQTPASVSATVGSTVTISCQSSPSVYKNNQLAWYQQKPGQPPKLLIYLASTLASGVPSRFKGSGSGTEFTLTISDLECADAATYYCAGGYSSSSDTAFGGGTEVEVKR
notes: one of the 34 chimeric antibodies; rabbit variable regions on human IgG1 and human kappa; also called 418H5 chimeric rabbit/human IgG
B4: 466F6 (antibody, human IgG1, kappa, V domains shown)
VH: RSLEESGGRLVTPGTPLTLTCTASGFTISSYHMQWVRQAPGKGLEYIGTISSGGNVYYASWARGRFTISRPSSTTVDLKMTSLTTEDTATYFCARDSGYSDPMWGPGTLVTVSS
VL: DVVMTQTPASVSEPVGGTVTIKCQASQNIRTYLSWYQQKPGQRPKLLIYAAANLASGVPSRFSGSRSGTEFTLTISDLECADAATYYCQCTYLGTDYVGGAFGGGTEVEFKR
notes: one of the 34 chimeric antibodies; rabbit variable regions on human IgG1 and human kappa; also called 466F6 chimeric rabbit/human IgG
B5: 420H5 (antibody, human IgG1, kappa, V domains shown)
VH: QSLEESGGDLVKPGASLTLTCTASGFSFSSNYWICWVRQAPGKGLEWIACIYVGSSGDTYYASWAKGRFTISKTSSTTVTLQMTSLTAADTATYFCARDSSSYYMFNLWGQGTLVTVSS
VL: ALVMTQTPASVSAAVGGTVTINCQASEDIDTYLAWYQQKPGQPPKLLIFYASDLASGVPSRFKGSGSGTEFTLTISGVQCDDAATYYCQGGYYTSSADTRGAFGGGTEVVVKR
notes: one of the 34 chimeric antibodies; rabbit variable regions on human IgG1 and human kappa; also called 420H5 chimeric rabbit/human IgG
B6: 470C6 (antibody, human IgG1, kappa, V domains shown)
VH: B5 VH with S6A, S29T, N31S, W33Y, I34M, V53T, D58S, S63N
VL: B5 VL with T31N, K63S, E70Q, A97T
notes: one of the 34 chimeric antibodies; rabbit variable regions on human IgG1 and human kappa; also called 470C6 chimeric rabbit/human IgG
B7: 416F8 (antibody, human IgG1, kappa, V domains shown)
VH: QSLEESGGRLVTPGTPLTLTCTASGFSLSNYYMNWVRQAPGKGLEYIGIISSSGSAYYASWAKGRFTISRTSTTVDLRITSPTTEDTATYFCARGDYGMDLWGQGTLVTVSS
VL: AQVLTQTASSVSAPVGGTVTISCQSSQTVYNNNLLSWYQQKPGQRPKLLIYYASTLAFGVPSRFKGSGSGTEFTLTISDLECDDAATYFCQGGYSGWIYVFGGGTEVEVKR
notes: one of the 34 chimeric antibodies; rabbit variable regions on human IgG1 and human kappa; also called 416F8 chimeric rabbit/human IgG
B8: 472E4 (antibody, human IgG1, kappa, V domains shown)
VH: QSLEESGGRLVTPGGSLTLTCTVSGFSLNNNAISWVRQAPGKGLEWVAIIQNTGTTDYARWAKGRFTISKTSTTVDLKINSPTTEDTATYFCGRGYGFESELVIWGPGTLVTVSS
VL: AAVLTQTPSSTSAAVGGTVTISCQSSQSVYNNNALAWYQKKPGQPPKLLIYLASTLASGVPSRFSGSGSGTQFTLTISDLECDDAATYYCLGVYNDDVDNGFGGGTEVVFKR
notes: one of the 34 chimeric antibodies; rabbit variable regions on human IgG1 and human kappa; also called 472E4 chimeric rabbit/human IgG
B9: 460C3 (antibody, human IgG1, kappa, V domains shown)
VH: QSLEESGGDLVKPGASLTLTCTASGIDFSRRYYMCWVRQAPGKGLEWIACIYTGSRDTPHYASWAKGRFTISQTSSTTVTLQMTSLTAADTATYFCAREGSLWGQGTLVTVSS
VL: AQVLTQTPSSVSAAVGGTVSISCQSSQSVYSNWFSWYQQKPGQPPKLLIYSASTLASGVPSRFKGSGSGTQFTLTISDLECDDAATYYCAGGYNTVIDTFAFGGGTEVEFKR
notes: one of the 34 chimeric antibodies; rabbit variable regions on human IgG1 and human kappa; also called 460C3 chimeric rabbit/human IgG

One assay addresses T2, recombinant human 4-1BB extracellular domain protein (human, UniProt Q07011 24-186).
T2 construct: extracellular domain; Analyte in the Octet assay; also called CD137; TNFRSF9
Put plainly: Octet BLI; chimeric IgG from transfection supernatant on anti-human Fc biosensor; recombinant human 41BB; column kdis(1/s) Human. An excerpt:
(§1) The heavy and light chain expression plasmids generated from each well were transiently co-transfected to produce rabbit/human chimeric antibodies. Recombinant antibody supernatants were confirmed to contain antibodies specific for human and cynomolgus 4-1BB using bio-layer interferometry analysis on a ForteBio Octet Red 96 instrument. Anti-human Fc biosensors (Pall ForteBio) were used to capture antibodies in the supernatants. Association to human or cynomolgus 4-1BB was observed by real-time interferometry by placing the biosensors in wells containing recombinant human or cynomolgus 4-1BB extracellular domain protein. Dissociation was measured after transfer of the biosensors into wells containing 10× kinetics buffer (Pall ForteBio). The software provided by the manufacturer was used to analyze the interferometry data. A summary of the primary BCC screening data and the corresponding screening data for 34 recombinant chimeric rabbit/human IgG antibodies is shown in FIG. 2.
As for B1, the koff was 0.00054 s⁻¹.
Regarding B2, the koff worked out at 0.001 s⁻¹.
For B3, the koff came out at 0.0014 s⁻¹.
On the same count and under the same terms, the value for B4 was 0.0021 s⁻¹.
On the same count and under the same terms, under B5 stands 0.0013 s⁻¹; under B6, 0.001 s⁻¹.
The same measure, in the same setting: the value for B7 was 0.0043 s⁻¹.
Consider B8, for which the koff amounted to 0.0011 s⁻¹.
Same read-out and setting: the value for B9 was 0.00067 s⁻¹.

For the next assay, the target named is T1, recombinant cynomolgus 4-1BB …. Put plainly: Octet BLI; chimeric IgG from transfection supernatant on anti-human Fc biosensor; recombinant cynomolgus 41BB; column kdis(1/s) Cynomolgus.
Text: as §1
For B1, the koff was 0.00079 s⁻¹.
As for B2, the koff was 0.0015 s⁻¹.
Still for that read-out and setting: under B3 stands 0.0016 s⁻¹.
In the case of B4, the koff turned out to be 0.0026 s⁻¹.
Consider B5, for which the koff turned out to be 0.0023 s⁻¹.
For B6, the koff is 0.0014 s⁻¹.
With B7, the off-rate constant (koff) was found to be 0.003 s⁻¹.
On to B8, for which the koff came to 0.0018 s⁻¹.
For B9, the koff came to 0.0041 s⁻¹.
